Data as given in patent publication US11046945B2, “Labeled glutaminase proteins, isolated glutaminase protein mutants, methods of use, and kit” (CORNELL UNIVERSITY, priority 2013, dated 2021).
Where a chain is given by its changes, count along the chain named. Names and notes keep the numbering of the source.

T1: GAC (Mus musculus, UniProt D3Z7P3)
T1 construct: plasmid (residues 72-603 for GAC, 72-674 for KGA); His-tag with thrombin cleavage site (N, cleaved yes); made in house; host or cells: pET23a vector
T1 sequence (D3Z7P3 72-603 isoform D3Z7P3-2): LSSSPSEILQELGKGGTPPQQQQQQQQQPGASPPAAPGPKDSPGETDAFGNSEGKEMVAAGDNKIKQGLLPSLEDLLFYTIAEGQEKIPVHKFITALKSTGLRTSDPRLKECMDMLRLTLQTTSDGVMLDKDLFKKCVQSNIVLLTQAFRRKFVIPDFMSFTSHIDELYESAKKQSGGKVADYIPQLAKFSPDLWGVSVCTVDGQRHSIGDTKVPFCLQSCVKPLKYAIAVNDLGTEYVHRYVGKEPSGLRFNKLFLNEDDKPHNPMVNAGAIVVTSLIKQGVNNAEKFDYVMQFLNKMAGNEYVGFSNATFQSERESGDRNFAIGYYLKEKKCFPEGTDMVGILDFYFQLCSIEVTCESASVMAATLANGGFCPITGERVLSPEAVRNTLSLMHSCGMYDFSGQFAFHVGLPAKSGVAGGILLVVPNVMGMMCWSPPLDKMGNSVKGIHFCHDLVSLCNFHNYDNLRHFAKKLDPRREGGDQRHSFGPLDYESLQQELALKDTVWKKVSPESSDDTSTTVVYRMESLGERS

B1: QSY® 9-GAC (WT): wild type recombinant mouse GAC labeled with the non-fluorescent acceptor QSY 9 succinimidyl ester (protein)
chain: T1 sequence (D3Z7P3 72-603 isoform D3Z7P3-2)
B2: QSY® 9-GAC (D391K): QSY 9-labeled constitutive GAC dimer mutant D391K (protein)
chain: T1 sequence (D3Z7P3 72-603 isoform D3Z7P3-2) with D320K
B3: QSY® 9-GAC (K316E, D391K, R459E): QSY 9-labeled monomer GAC mutant K316E/D391K/R459E (protein)
chain: T1 sequence (D3Z7P3 72-603 isoform D3Z7P3-2) with K245E, D320K, R388E

Target: T1, GAC
Test: FRET assay of GAC tetramer formation (488-GAC donor, QSY 9-GAC acceptor)
Assay type: binding
Conditions: 200 nM QSY 9-labeled protein added to 20 nM 488-WT-GAC
Text: A mouse kidney type glutaminase isoform 1 (KGA, NP_001074550.1, which is hereby incorporated by reference in its entirety (SEQ ID NO:7)) and isoform 2 (GAC, NP_001106854.1, which is hereby incorporated by reference in its entirety (SEQ ID NO:3)) plasmid (residues 72-603 for GAC, 72-674 for KGA) was cloned into a pET23a vector containing an N-terminal histidine (His)-tag and thrombin cleavage site. The expressed protein was initially purified using Co^2+ affinity beads (Clontech), after which the His-tag was cleaved with human thrombin (Haemetologic Technologies) overnight at 4° C. and subsequently purified by anion exchange (GE healthcare) and gel filtration chromatography. Purified GAC or KGA was stored in a high salt containing buffer (20 mM Tris-HCl pH 8.5, 500 mM NaCl, 1 mM NaN3) and stored at −80° C. following snap freezing in liquid N2 for long term use. For labeling recombinant GAC or KGA with small molecule probes, 1.5 mg of enzyme was exchanged to 50 mM HEPES pH 7.2, 100 mM NaCl using a PD10 desalting column (GE healthcare) and incubated with 50 μM (5-fold excess of enzyme) of either ALEXA FLUOR® 488 succinimidyl ester or QSY® 9 succinimidyl ester (Molecular Probes) for 1 hr at 4° C. After 1 hr, the labeling reaction was quenched with 150 mM Tris-HCl pH 8.5 and unreacted probe was separated from labeled-enzyme using a PD10 desalting column eluting labeled-GAC back into the high salt containing buffer.
Fluorescence experiments were performed using a Varian Carry Eclipse Fluorometer in the counting mode. Excitation and emission wavelengths were 490 and 520 nm, respectively. Experiments were all prepared as one-mL samples and stirred continuously at 20° C. in 50 mM Tris-Acetate pH 8.5, 0.1 mM ethylenediaminetetraacetic acid (EDTA). For WT GAC titrations in the absence of inorganic phosphate, 10 nM 488-GAC was equilibrated followed by injection of 25 μL of the appropriate concentration of QSY® 9-GAC and was allowed to equilibrate for 10 minutes at which point 75 μL of the appropriate concentration of unlabeled WT GAC was added to give a concentration that was ten-times that of labeled-GAC (i.e., 10-fold excess). For FRET experiments prepared for inorganic phosphate titrations, a similar protocol was followed whereby 10 nM of 488-GAC was equilibrated with 400 nM QSY® 9-GAC followed by injection of 100 μL of the appropriate concentration of K2HPO4 prepared in 50 mM Tris-Acetate (pH=8.5) 0.1 mM EDTA buffer. To test whether purified mutants can form oligomers with WT GAC, 200 nM QSY® 9-D391K-GAC or 200 nM QSY® 9-K316E-D391K-R459E was added to an equilibrated sample of 20 nM 488-WT GAC. Likewise, when assaying the effects of BPTES and 968 on oligomer formation, BPTES or 968 (10 μM or 25 μM, respectively) was added following equilibration of a sample of 200 nM of QSY® 9-WT GAC and 20 nM 488-WT GAC. Both BPTES and 968 were prepared in DMSO, and appropriate dilutions were made so that less than 2% (v/v) DMSO was added to an experimental sample.

| Molecule | EFRET max / energy transfer on addition to 488-GAC (WT) |
| --- | --- |
| B1 | approximately 0.3 |
| B2 | only a minor extent of FRET |
| B3 | no observable energy transfer |
